From patent US20070036796A1 come the findings set out here.

In the test the target is human CCR5 (human) (UniProt P51681). In words: cell-based or functional assay.
Chain of human CCR5 (human) (P51681 whole entry): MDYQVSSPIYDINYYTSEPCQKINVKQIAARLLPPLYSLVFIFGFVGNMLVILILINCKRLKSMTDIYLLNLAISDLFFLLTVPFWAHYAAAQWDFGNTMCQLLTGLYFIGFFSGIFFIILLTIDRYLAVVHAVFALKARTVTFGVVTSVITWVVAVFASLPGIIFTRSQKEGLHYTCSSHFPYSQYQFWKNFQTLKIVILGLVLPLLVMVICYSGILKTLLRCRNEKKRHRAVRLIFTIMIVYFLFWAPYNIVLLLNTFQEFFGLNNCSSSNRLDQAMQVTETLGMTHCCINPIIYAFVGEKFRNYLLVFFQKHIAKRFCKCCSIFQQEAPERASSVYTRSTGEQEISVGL

The substance “Pharmingen 2D7 (CD 195; Cat. Nr. 555990) (antibody)” came in with an IC50, PhenoSenseHIV assay (ViroLogic) using JRCSF strain of 1.4 µg/ml; an IC50, inhibition of HIV growth in human PBMC, JRCSF (p24 ELISA) of 0.271 µg/mL; an IC50, inhibition of HIV growth in human PBMC, Nl-Bal (p24 ELISA) of 0.076 µg/mL.
